To fix the notation:
B1: TPR t1 (parent)
chain: GACCAAUCUGCCCUCAGAGCUCGAGAACAUCUUCGGAUGCAGAGGAGGCAGGCUUCGGUGGCGCGAUAGCGCCAACGUCCUCAACCUCCAAUGCAUCCCACCACAUGAUGAUGCCUGAAGAGCCUUGGUUUUUUG

The variants in this data set derive from B1. Nature of the data set: polymerase ribozyme fitness, log enrichment relative to wild type (log ratio); higher = more active; in vitro selection for triplet polymerase activity. The gist of the method:
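A single round of triplicate in vitro selection, including frozen incubation at −7 °C, was applied to PCR-built, transcribed mutant libraries of each subunit of a heterodimeric triplet polymerase ribozyme. Illumina sequencing of input and output libraries retained genotypes with ≥10 input reads and ≥1 read per output. Fitness is the base-2 logarithm of genotype enrichment divided by wild-type enrichment, from inverse-variance-weighted replicate averages.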
For the variant G17U A74U, the “polymerase ribozyme fitness (log ratio)” value was -3.16.
In the case of G63A U81A, the “polymerase ribozyme fitness (log ratio)” value was -2.01.
Take G10U A18C: the “polymerase ribozyme fitness (log ratio)” value was -2.58.
For the variant A2G G77A C80A C124A, the “polymerase ribozyme fitness (log ratio)” value was -0.514.
With G39U A43G, the “polymerase ribozyme fitness (log ratio)” value is -1.75.
The same measure for C56A C62U C124U: 1.48; for A66U C76U C89G C124U G128U U132C: -5.09; for A37C A50C: -0.281.
A41G A66G: the “polymerase ribozyme fitness (log ratio)” value is -1.87.
Consider C73G A90C, for which the “polymerase ribozyme fitness (log ratio)” value is -2.17.
The same measure for C8A C72G U133G: 0.138; for C76G C85A U132C: -0.689; for A29G A37C: -2.19.
With C11G C12A G63A the figure was -0.541; with C98A C115U C123U, -7.67; with C64A U112G G122A, -7.31.
On to C12A G113A, for which the “polymerase ribozyme fitness (log ratio)” value is -2.14.
In the case of U78A C124U U125A U133C, the “polymerase ribozyme fitness (log ratio)” value was determined as 1.84.
C70U C114U: the “polymerase ribozyme fitness (log ratio)” value was -2.88.
For C70U G110U G120A U129G, the “polymerase ribozyme fitness (log ratio)” value was -5.09.
With C114A U131C the figure was -1.66; with G71A U96G C123A, -0.833; with A46U C115A, -1.98.
With C76U C97U the figure was -0.795; with A18U A29G G42C G110U U112G, -5.42.
Turning to A74G C89G, the “polymerase ribozyme fitness (log ratio)” value was -1.41.
With A43C G47A C115U U116C the figure was -3.25; with G17A C94G, -4.81.
With A50U C70G A84C C115A the figure was -4.54; with G39U U106C U129C, -1.88; with A43U C49G U78A C115A, -3.44.
With C12G C22U U32G G69U C72G C102A A111U G122U the figure was -5.99.
Regarding C11G G63A, the “polymerase ribozyme fitness (log ratio)” value was -0.354.
With C53U C123G the figure was 1.61; with C12U A26C G45C G61C A75C C82A, -6.28; with C12U U106A, 0.462.
With A46U C56G U78C G93C G120U the figure was -3.59; with G110U G120U, -2.75; with C40G G44U C85U, -5.09.
The same measure for A2G U9G U106G U112C U130A: -0.197; for A2G G93A: -0.719; for C64U C115U: -0.234.
With C76U A90G C115A, the “polymerase ribozyme fitness (log ratio)” value was -0.0334.
The same measure for C22G A29C G61U G63C C97A C124A: -6.38; for A74C G120U: 0.00369.
With C12U G61C C94U the figure was -0.805; with C53A C56A U87C G120C, 1.18; with C8A C12U C114U U116G, -4.98.
For C4U C72A A91G G117C, the “polymerase ribozyme fitness (log ratio)” value was -5.33.
Take A2C G57C G71A U92G G120A: the “polymerase ribozyme fitness (log ratio)” value was -6.04.
The same measure for C11U A18C A29C C101A G110C: -7.19; for G17A C62A U87C: -6.24.
With C70U G93C the figure was -1.12; with C13A C49G C56G U96A, -3.42.
With C79G C89U A91C the figure was -4.46; with G48U A105U, -2.27.
Regarding C53U G60A A74C, the “polymerase ribozyme fitness (log ratio)” value was -0.941.
The same measure for G35C U59G C76A C98A: -5.8; for A5U G47A G113U: -3.72.
Turning to C104U U112G U116C, the “polymerase ribozyme fitness (log ratio)” value is -1.98.
With G19U C86G the figure was -3.71; with A5G C8U A95C, -0.636.
C31G A111U C114U: the “polymerase ribozyme fitness (log ratio)” value is -6.64.
With U14G A27C C85A U109A C124A the figure was -6.27.
With C76G U78C G135U the figure was -1.36; with U7G G48C C89A, -2.97; with U38A G61A, -1.68.
With G63U C73U the figure was -2.45; with G42U A43G G45U U55G C72A, -0.969; with C72G C88A C94U G120C, -1.57.
Consider A95U G117C, for which the “polymerase ribozyme fitness (log ratio)” value is -4.23.
For G17C C49A C82U C114U, the “polymerase ribozyme fitness (log ratio)” value was -5.49.
For the variant G71A C104A, the “polymerase ribozyme fitness (log ratio)” value was -2.33.
The same measure for A91G G113U: -3.39; for G19A C85U: -3.47; for C15U G19A C89A: -5.15.
With A27U C73A the figure was -3.09; with G48C C82A A84C, -1.03; with C3U C8A C11A U21A C124G, 1.81.
C40G G47U A74U: the “polymerase ribozyme fitness (log ratio)” value was -4.86.
In the case of C4A A50G C70U A74G A84C C115A, the “polymerase ribozyme fitness (log ratio)” value was -5.12.
For the variant C53G G120U, the “polymerase ribozyme fitness (log ratio)” value was -0.149.
Consider C13A C56A, for which the “polymerase ribozyme fitness (log ratio)” value was -1.3.
For the variant U109A U116C, the “polymerase ribozyme fitness (log ratio)” value was -7.07.
The same measure for G52A A118G: -0.546.
Regarding C12U A46C C53G C72U C73G A84C A95C, the “polymerase ribozyme fitness (log ratio)” value is -5.01.
On to U87G G117A, for which the “polymerase ribozyme fitness (log ratio)” value is -1.13.
With G69C G110C the figure was -4.54; with C12G G113U, -3.38; with C73U C79G G113U, -5.88.
Consider A66C U130C, for which the “polymerase ribozyme fitness (log ratio)” value was -0.918.
With G44U C53A G69C A105U the figure was -5.22; with C72U C123A U126G, -1.44; with G60C C123U, 0.343.
With A2G C34U the figure was -4.37.
The same measure for G19A C62U G93U: -4.23.
On to U7C G42U G69C, for which the “polymerase ribozyme fitness (log ratio)” value was -2.97.
With C12G G120A the figure was 1.87; with G39A C124G, 1.36; with G52A C70U G120A U132A, 0.354.
With U131A U132C the figure was 0.142; with A43C G45A A50G G113U G120C, -1.89; with C73U G117C, -2.95.
With G44A C49U U54G C70A U112G the figure was -6.09; with A18U G39U G48U C73U A84C, -4.34.
In the case of G44C U112C, the “polymerase ribozyme fitness (log ratio)” value amounted to 0.766.
On to U38A C73U, for which the “polymerase ribozyme fitness (log ratio)” value is -2.86.
In the case of G42U G57U C82U, the “polymerase ribozyme fitness (log ratio)” value was -1.58.
With G58U G61A U131G the figure was -0.481; with A2U C13A, -3.76.
The same measure for A91U G127U: -3.19; for G39C G44U: -2.29; for A46G C79A: -1.06.
For the variant C3A C22G A37G A111G, the “polymerase ribozyme fitness (log ratio)” value is -4.63.
As for C20A C49G U106C, the “polymerase ribozyme fitness (log ratio)” value is -3.68.
With G44A G69C C102A G122A the figure was -5.57.
With C3U G48C G61U the figure was -0.989; with C11G G36U G47U G63A U78G, -2.93; with C11U C22G C31A C72G C99U C123A, -5.82.
With U9A C56A G77U G117U, the “polymerase ribozyme fitness (log ratio)” value amounted to 0.546.
The same measure for G52A C86G: -0.287; for C8G G61A U87G C123A: 1.64; for A43U U59G U96A A105U A121C: -4.79.
With C12U U116G the figure was -0.0621.
With A43U G45A C56U C62U U92A the figure was -4.61; with G10A C97A, -4.44; with G107A U125G, -5.84.
Regarding C12A A100C A121C, the “polymerase ribozyme fitness (log ratio)” value is 1.43.
The same measure for A27U G39C G120U: -2.78.
With G47A C72G the figure was -0.62.
With A16G A41U G60U C86G C124G, the “polymerase ribozyme fitness (log ratio)” value was -2.13.
As for U7G C8U C53A U59C C80U, the “polymerase ribozyme fitness (log ratio)” value is -4.87.
As to C53A U54G C70U C86U C89G A121C U125A, the “polymerase ribozyme fitness (log ratio)” value is -2.
On to C98G C124U, for which the “polymerase ribozyme fitness (log ratio)” value is -5.51.
For C94A G128A, the “polymerase ribozyme fitness (log ratio)” value is -2.41.
Consider A16U C79G, for which the “polymerase ribozyme fitness (log ratio)” value was -2.59.
On to C13A A41U G45C C82A, for which the “polymerase ribozyme fitness (log ratio)” value is -4.65.
For the variant A41G G61U A84G U96G C97U, the “polymerase ribozyme fitness (log ratio)” value was -6.44.
The same measure for U9C G57U C114U G128C U130C: -1.68.
For G47U G57A U106G U132A, the “polymerase ribozyme fitness (log ratio)” value was -4.76.
C13G A37U G48A C49U C85U G93C G120U: the “polymerase ribozyme fitness (log ratio)” value is -1.53.
With U32C C72A C82A A83U, the “polymerase ribozyme fitness (log ratio)” value is -0.635.
Take C3U C12U C89G: the “polymerase ribozyme fitness (log ratio)” value was -1.64.
U7G A74C G93U G113A: the “polymerase ribozyme fitness (log ratio)” value was -1.35.
The same measure for G19U A50U: -3.48; for C56U U81G C82A: -1.57.
With A16U G60A C62U U112C the figure was -0.401; with G93A G113A, -0.607.
Take C80A C86G: the “polymerase ribozyme fitness (log ratio)” value is -5.2.
With G36C C72A G122A the figure was -1.22; with C40A U129G U131A G135C, -4.21.
The same measure for G69U C72G U78G U129C: -1.86; for A26G C53A U81G: -3.49; for G10A C11U C40U C72G C104G C124U U133C: -5.5.
In the case of C3U U81G, the “polymerase ribozyme fitness (log ratio)” value is -4.04.
With A18C G71U the figure was -3.18; with C28U A108G, -4.76; with A5G G63A U67G U96A C123U, -5.12.
With G45U C76G U112A A121U the figure was 0.648; with C101A G117A, -2.65; with C70A C102U U112C, -2.21.
Turning to C56G G69C A83C C104U G135A, the “polymerase ribozyme fitness (log ratio)” value is -4.55.
With C8A G110A the figure was -0.267.
Consider A27U G71A U96A U109A, for which the “polymerase ribozyme fitness (log ratio)” value was -6.15.
Turning to A41U G45U U78C, the “polymerase ribozyme fitness (log ratio)” value is -2.76.
In the case of U21C G61A C114U U125A, the “polymerase ribozyme fitness (log ratio)” value was -1.45.
With C40U A119G U126G G127U the figure was -0.212.

The values above are taken from the RNAGym collection of RNA variant scans (doi:10.1073/pnas.2313332121).
